Measured values from IntAct's records for PubMed 20534488.

B1: Ras-related protein Rab-5C (Homo sapiens), P51148 (parent)
chain: MAGRGGAARPNGPAAGNKICQFKLVLLGESAVGKSSLVLRFVKGQFHEYQESTIGAAFLTQTVCLDDTTVKFEIWDTAGQERYHSLAPMYYRGAQAAIVVYDITNTDTFARAKNWVKELQRQASPNIVIALAGNKADLASKRAVEFQEAQAYADDNSLLFMETSAKTAMNVNEIFMAIAKKLPKNEPQNATGAPGRNRGVDLQENNPASRSQCCSN
partner: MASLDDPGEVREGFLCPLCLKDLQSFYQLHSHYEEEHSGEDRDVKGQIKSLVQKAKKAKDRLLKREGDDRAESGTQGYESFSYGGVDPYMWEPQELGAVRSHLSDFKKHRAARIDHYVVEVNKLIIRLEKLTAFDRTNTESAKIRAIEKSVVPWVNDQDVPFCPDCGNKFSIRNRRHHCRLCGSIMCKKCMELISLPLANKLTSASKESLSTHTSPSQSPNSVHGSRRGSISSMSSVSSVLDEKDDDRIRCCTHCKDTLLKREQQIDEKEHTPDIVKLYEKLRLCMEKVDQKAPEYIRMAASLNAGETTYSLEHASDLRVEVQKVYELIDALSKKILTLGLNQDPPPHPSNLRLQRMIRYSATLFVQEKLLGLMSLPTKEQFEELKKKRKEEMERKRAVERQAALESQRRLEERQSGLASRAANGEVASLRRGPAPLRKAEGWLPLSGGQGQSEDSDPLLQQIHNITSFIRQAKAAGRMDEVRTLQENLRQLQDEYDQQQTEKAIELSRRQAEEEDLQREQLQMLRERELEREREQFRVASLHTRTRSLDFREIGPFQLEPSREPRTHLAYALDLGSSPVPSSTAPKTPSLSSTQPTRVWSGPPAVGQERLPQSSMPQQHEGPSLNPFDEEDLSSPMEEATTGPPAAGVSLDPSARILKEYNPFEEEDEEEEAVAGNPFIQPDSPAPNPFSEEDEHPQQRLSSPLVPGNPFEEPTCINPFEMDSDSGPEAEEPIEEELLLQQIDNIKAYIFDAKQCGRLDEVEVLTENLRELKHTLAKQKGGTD
B2: Ras-related protein Rab-5A (Homo sapiens), P20339-1 (parent)
chain: MASRGATRPNGPNTGNKICQFKLVLLGESAVGKSSLVLRFVKGQFHEFQESTIGAAFLTQTVCLDDTTVKFEIWDTAGQERYHSLAPMYYRGAQAAIVVYDITNEESFARAKNWVKELQRQASPNIVIALSGNKADLANKRAVDFQEAQSYADDNSLLFMETSAKTSMNVNEIFMAIAKKLPKNEPQNPGANSARGRGVDLTEPTQPTRNQCCSN
B3: Ras-related protein Rab-5C (Homo sapiens), P51148 (parent)
chain: B1 chain

Variants of: B1
Settings: with rbns5_human RBSN

Row | effect of a mutation on the interaction | Variant
1 | increasing interaction strength | A94S
2 | with no effect | E73L
3 | with no effect | Y83F
4 | decreasing interaction strength | H84R
5 | with no effect | Q61K
6 | decreasing interaction strength | A57S
7 | with no effect | L59M

Second part, the variant before the results:

Row | Variant | effect of a mutation on the interaction
8 | S52P | decreasing interaction strength
9 | Q50I | with no effect
10 | E51N | decreasing interaction strength
11 | A57D | disrupting interaction strength
12 | Y49N | with no effect
13 | K43E | disrupting interaction strength
14 | E48P | with no effect

Variants of: B2
Settings: with eea1_human EEA1, Q15075
Sequence of eea1_human EEA1, Q15075 (Q15075 whole entry): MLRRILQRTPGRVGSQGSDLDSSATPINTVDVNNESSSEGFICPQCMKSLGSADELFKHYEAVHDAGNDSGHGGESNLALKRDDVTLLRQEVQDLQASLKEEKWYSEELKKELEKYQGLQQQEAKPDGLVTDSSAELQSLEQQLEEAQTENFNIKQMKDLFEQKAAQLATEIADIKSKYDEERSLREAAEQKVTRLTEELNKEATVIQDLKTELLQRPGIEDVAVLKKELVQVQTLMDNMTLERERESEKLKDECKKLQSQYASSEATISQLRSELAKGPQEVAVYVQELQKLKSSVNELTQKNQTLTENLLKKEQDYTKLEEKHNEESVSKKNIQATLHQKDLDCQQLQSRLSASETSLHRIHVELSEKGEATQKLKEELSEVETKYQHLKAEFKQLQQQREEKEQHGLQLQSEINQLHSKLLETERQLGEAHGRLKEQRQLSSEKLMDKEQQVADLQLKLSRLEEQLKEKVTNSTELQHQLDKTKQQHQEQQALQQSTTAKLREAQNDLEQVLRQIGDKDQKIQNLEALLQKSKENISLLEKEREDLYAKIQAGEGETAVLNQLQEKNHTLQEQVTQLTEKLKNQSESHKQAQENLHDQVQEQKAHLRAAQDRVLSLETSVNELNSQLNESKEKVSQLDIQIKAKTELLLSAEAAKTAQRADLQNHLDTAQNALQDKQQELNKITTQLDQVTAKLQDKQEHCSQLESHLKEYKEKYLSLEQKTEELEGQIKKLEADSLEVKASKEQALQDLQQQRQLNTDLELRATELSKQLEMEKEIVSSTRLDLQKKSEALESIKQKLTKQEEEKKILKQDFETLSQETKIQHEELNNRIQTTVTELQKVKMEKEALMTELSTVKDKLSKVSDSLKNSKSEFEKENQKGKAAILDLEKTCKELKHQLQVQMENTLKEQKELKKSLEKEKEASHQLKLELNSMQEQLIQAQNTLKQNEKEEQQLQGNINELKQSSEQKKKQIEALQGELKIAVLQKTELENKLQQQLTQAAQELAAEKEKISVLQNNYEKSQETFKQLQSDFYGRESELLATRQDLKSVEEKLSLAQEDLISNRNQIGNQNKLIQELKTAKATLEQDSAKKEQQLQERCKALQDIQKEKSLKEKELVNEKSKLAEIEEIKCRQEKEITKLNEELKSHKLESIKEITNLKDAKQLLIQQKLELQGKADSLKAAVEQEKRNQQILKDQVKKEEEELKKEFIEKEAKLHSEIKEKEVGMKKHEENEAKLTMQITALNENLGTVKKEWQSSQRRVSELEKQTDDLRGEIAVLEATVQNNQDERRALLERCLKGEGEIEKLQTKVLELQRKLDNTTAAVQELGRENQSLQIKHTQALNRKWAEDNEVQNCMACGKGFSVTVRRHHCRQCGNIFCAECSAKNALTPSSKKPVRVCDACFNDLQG

Row | effect of a mutation on the interaction | Variant
15 | with no effect | Q79L

Variants of: B3
Settings: with eea1_human EEA1, Q15075

Row | effect of a mutation on the interaction | Variant
16 | disrupting interaction strength | A57S
17 | disrupting interaction strength | M89A
18 | disrupting interaction strength | M89S

The next lines start with the variant.

Row | Variant | effect of a mutation on the interaction
19 | A57E | disrupting interaction strength
20 | A57D | decreasing interaction strength
21 | G55Q | disrupting interaction strength
